Assay results published in publication PMC8465852, “The HMGB Protein KlIxr1, a DNA Binding Regulator of Kluyveromyces lactis Gene Expression Involved in Oxidative Metabolism, Growth, and dNTP Synthesis”.

Key:
KlIxr1 [1] = target: T1, KlIxr1 (Kluyveromyces lactis, UniProt Q6CMQ4 1-464); assay: EMSA; calf thymus DNA carrier; two retarded bands; FA: 10 mM Tris-HCl pH 8.0, 100 mM KCl, 2 mM DTT, 1 mM EDTA, 500 ug/mL BSA, 25 C, 100 nM DNA; EMSA: 4 C 30 min, 500 nM DNA, 1 ug protein, 1 ug calf thymus DNA, buffer by reference; settings: protein: recombinant; tags: N-terminal 6xHis; label: 5'-FAM on forward strand (AJVV009f*); blunt
T1 sequence: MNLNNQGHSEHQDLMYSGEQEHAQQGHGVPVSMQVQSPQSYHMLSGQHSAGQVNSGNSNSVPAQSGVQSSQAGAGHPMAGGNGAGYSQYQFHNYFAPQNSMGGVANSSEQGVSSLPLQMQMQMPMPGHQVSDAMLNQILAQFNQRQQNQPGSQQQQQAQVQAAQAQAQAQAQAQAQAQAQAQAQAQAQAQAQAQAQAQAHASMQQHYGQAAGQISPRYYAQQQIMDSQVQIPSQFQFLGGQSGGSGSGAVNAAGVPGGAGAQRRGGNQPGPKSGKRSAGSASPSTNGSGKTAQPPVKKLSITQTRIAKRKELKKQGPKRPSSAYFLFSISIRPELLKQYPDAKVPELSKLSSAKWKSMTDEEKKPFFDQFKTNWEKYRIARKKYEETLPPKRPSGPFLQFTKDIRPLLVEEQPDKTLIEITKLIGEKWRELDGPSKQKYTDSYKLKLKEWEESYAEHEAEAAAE

KlIxr1 [2] = target: T1, KlIxr1; assay: fluorescence anisotropy; 100 nM DNA; FA: 10 mM Tris-HCl pH 8.0, 100 mM KCl, 2 mM DTT, 1 mM EDTA, 500 ug/mL BSA, 25 C, 100 nM DNA; EMSA: 4 C 30 min, 500 nM DNA, 1 ug protein, 1 ug calf thymus DNA, buffer by reference; settings: protein: recombinant, tags: N-terminal 6xHis, blunt

B1: KlHEM13 promoter 40-mer (both sites) (dsDNA)
DNA 1: ATCTTGAATGTATGTTGGTTCAGCCTCTATTTCTCTCGTA
DNA 2: TACGAGAGAAATAGAGGCTGAACCAACATACATTCAAGAT
binding result (KlIxr1 [1]): binds

B2: HEM13A (dsDNA)
DNA 1: ATCTTGAATGTATGTTGGTTCAGCCTCTCC
DNA 2: GGAGAGGCTGAACCAACATACATTCAAGAT
Kd (KlIxr1 [2]; label: 5'-FAM on forward strand (AJVV045f*)): 15.6 ± 4.27 nM

B3: KlYCF1 promoter (dsDNA)
DNA 1: TTAATTGCAATTGTTACTGTTGATTTTAAA
DNA 2: TTTAAAATCAACAGTAACAATTGCAATTAA
Kd (KlIxr1 [2]; label: 5'-FAM on forward strand (AJVV029f*)): 105 ± 18.9 nM

B4: HEM13B (dsDNA)
DNA 1: TGGCCCAGCCTCTATTTCTCTCGTACCGGT
DNA 2: ACCGGTACGAGAGAAATAGAGGCTGGGCCA
Kd (KlIxr1 [2]; label: 5'-FAM on forward strand (AJVV050f*)): 155 ± 38.6 nM
